Assay results taken from PMC5344674.

Assays:
[1] = biological target: Orsay virus full-length δ protein (Orsay virus); assay: native MS; direct infusion by nano-spray, 10ug/mL protein complex in 5% ACN, 0.1% FA, Orbitrap Fusion Lumos; non-denaturing conditions; intact pentamer
[2] = biological target: Orsay virus full-length δ protein (Orsay virus); assay: AUC; sedimentation velocity, 27.6 μM δ, 20°C, 30,000 rpm, 50 mM TRIS pH 7.5, 250 mM NaCl; PCSA-DS molar mass transformation
[3] = biological target: Orsay virus mini-fusion protein CP-δ(215–485) (Orsay virus); assay: SEC; Superdex 200 gel filtration; elution buffer 50 mM Tris-HCl pH 7.5, 250 mM NaCl, 2-ME, 1 mM NaN3
[4] = biological target: Orsay virus δ(1–66) (Orsay virus); assay: crystal structure; hanging-drop vapor diffusion at 20°C; SAD with SeMet crystals, refined against native data at 2.22 Å

“Orsay virus full-length δ protein (natural protein)” was tested, and the stoichiometry N [1] was 5 and the stoichiometry N [2] was 5.
Substance “Orsay virus mini-fusion protein CP-δ(215–485) (domain or fragment)” has a stoichiometry N [3] of 5.
Work on “Orsay virus δ(1–66) (domain or fragment)” yielded a stoichiometry N [4] of 5.
